Measurements from patent publication US20150359847A1, “METHOD AND COMPOSITION FOR CONFERRING NEUROPROTECTION” (BLOOD SYSTEMS RESEARCH INSTITUTE, priority 2014, published 2015).

Columns and labels:
[1] = tested on: phospho-Akt (Ser473) in hippocampal homogenates; assay: Hippocampal phospho-Akt western blot 3 days post-TBI; type: in vivo, mouse
Excerpt: The mouse controlled cortical impact (CCI) injury model was used as previously described. In brief, mice were anesthetized with 5% isoflurane and 1:1 O2:N2 mixture. Animals were mounted on a stereotaxic frame and were secured by ear bars and an incisor bar. Anesthesia was maintained with 2.0% isoflurane and 1:1 O2:N2 mixture. A 5-mm-diameter craniotomy was made midway between bregma and lambda on the right side, with the medial edge of the craniotomy 1 mm lateral to midline. Injury was produced using a magnetic impactor mounted at an angle of 110° from the vertical plane. A single impact at a velocity of 4+/−0.2 m/s was used inflict a moderate to severe injury (1.2-1.3 mm impact depth). After injury, the incision was closed. […] Core body temperature was monitored using a rectal thermometer and maintained at 36.8° C.-37.2° C. with a heating pad throughout the procedure. […]
Cell lysates for western blotting were prepared with RIPA buffer (Cat#89900. Thermofisher Scientific, Rockford, Ill.) supplemented with phosphatase inhibitor cocktail 2 (Cat# P5726. Sigma, St Louis, Mo.), phosphatase inhibitor cocktail 3 (Cat# P0044. Sigma, St Louis, Mo.) and complete protease inhibitor (Cat#1862209. Thermofisher Scientific, Rockford, Ill.). […] Protein content was quantified with a Pierce BCA protein assay kit per manufacturer's instructions (Cat#23225. Thermofisher Scientific, Rockford, Ill.). […]

hippocampal neurons = assay: Sholl analysis of isolated hippocampal neurons; type: cell-based, mouse; settings: 1 μg/ml TIMP3, 72 hrs
Procedure: SH-SY5Y cells were obtained from ATCC (Cat# CRL-2266, Manassas, Va.) and were cultured in DMEM and 10% FBS up to passage 10. For differentiation of SH-SY5Y cells into a neuronal phenotype, cells were first plated in DMEEM+10% FBS for 24 hrs before exchanging media in DMEM+1% FBS 10 μM retinoic acid. Differentiation was performed for 3 days before experimentation. Hippocampal neurons were prepared according to the protocol by Beaudoin et al. (Nature Protocols 2012; 7(9):1741-1754) with minor modifications. In brief, after trypsin digestion of hippocampi isolated from P1 mouse pups single cell suspensions was created by trituration and plated onto Biocoat™ poly-D-lysine coated 12-well plates (Cat#354470, BD Biosciences, San Jose, Calif.). 2 pups were used per well and cell suspensions were incubated for 10 minutes per well for a total of 6 wells. The serial incubation allowed for variation in cell densities applicable to different experiments but also contributed to the reduction in non-neuronal cells. […]
Sholl analysis on processed images of isolated hippocampal neurons was conducted using the Fiji derivation of Image J. (Hypertext Transfer Protocol://Fiji.sc.Fiji). […] After neurites had been traced the images were rendered as an analyzed skeleton and Sholl analysis was run on the image from the Analyze menu option.

B1: TIMP3: Recombinant tissue inhibitor of matrix metalloproteinase-3, a soluble protein released by MSCs, obtained from Amgen Inc. (protein)
chain: CTCSPSHPQDAFCNSDIVIRAKVVGKKLVKEGPFGTLVYTIKQMKMYRGFTKMPHVQYIHTEASESLCGLKLEVNKYQYLLTGRVYDGKMYTGLCNFVERWDQLTLSQRKGLNYRYHLGCNCKIKSCYYLPCFVTSKNECLWTDMLSNFGYPGYQSKHYACIRQKGGYCSWYRGWAPPDKSIINATDP
phospho-Akt (Ser473) in ipsilateral hippocampal homogenates ([1]; TIMP3 60 μg/kg IV x3, day 3, 1 hr after last injection, vs TBI alone): significantly elevates | Phospho-Akt (Ser473) in contralateral hippocampal homogenates ([1]; day 3): No differences were observed | neurite complexity (Sholl analysis) (hippocampal neurons): significantly increased neurite complexity
